B1: dT60 (ssDNA)
DNA: TTTTTTTTTTTTTTTTTTTTTTTTTTTTTTTTTTTTTTTTTTTTTTTTTTTTTTTTTTTT
B2: dT55 (ssDNA)
DNA: TTTTTTTTTTTTTTTTTTTTTTTTTTTTTTTTTTTTTTTTTTTTTTTTTTTTTTT

What was measured:
Settings in all cases: protein: recombinant; tags: none (tag-free); chain copies: 2; label: 5'-32P
[1] = target: T1, PriB-SSBc (chimera KpPriB 1-98 fused to KpSSB 112-174) (Klebsiella pneumoniae, UniProt A6THB2 1-98+A6TGW7:112-174, internal_change); test: EMSA; monomer conc.; 1 complex; EMSA: 20 mM Tris-HCl pH 8.0, 100 mM NaCl, 25 C, 30 min, 1.7 nM 32P-ssDNA; 8% native PAGE in TBE at 4 C
[2] = target: T1, PriB-SSBc (chimera KpPriB 1-98 fused to …); test: EMSA; monomer conc.; 2 complexes; EMSA: 20 mM Tris-HCl pH 8.0, 100 mM NaCl, 25 C, 30 min, 1.7 nM 32P-ssDNA; 8% native PAGE in TBE at 4 C
[3] = target: T1, PriB-SSBc (chimera KpPriB 1-98 fused to …); test: EMSA; ND; up to 5 uM protein; EMSA: 20 mM Tris-HCl pH 8.0, 100 mM NaCl, 25 C, 30 min, 1.7 nM 32P-ssDNA; 8% native PAGE in TBE at 4 C

Row | Binder | apparent K (half saturation) [1] | further results
1 | TTTTTTTTTTTTTTTTTTTTTTTTTTTTTT (ssDNA) [dT30] | 940 ± 80 nM | –
2 | TTTTTTTTTTTTTTTTTTTTTTTTT (ssDNA) [dT25] | 1150 ± 120 nM | –
3 | TTTTTTTTTTTTTTTTTTTTTTTTTTTTTTTTTTTTTTTTTTTTTTTTTT (ssDNA) [dT50] | 290 ± 20 nM | –
4 | TTTTTTTTTTTTTTTTTTTTTTTTTTTTTTTTTTTTTTTT (ssDNA) [dT40] | 840 ± 60 nM | –
5 | TTTTTTTTTTTTTTTTTTTT (ssDNA) [dT20] | 2120 ± 180 nM | –
6 | B1 | – | apparent K (half saturation) [2]: 230 ± 20 nM
7 | TTTTTTTTTTTTTTT (ssDNA) [dT15] | – | binding result [3]: no binding
8 | B2 | – | apparent K (half saturation) [2]: 330 ± 30 nM
